Measured values as given in publication PMC3695523, “Reconstitution and characterization of eukaryotic N6-threonylcarbamoylation of tRNA using a minimal enzyme system” (Nucleic Acids Research, 2013).

Key:
[1] = target: the molecule itself; assay: crystal structure; Qri7 30-407 at 10 mg/ml, 0.1 M Tris-HCl pH 7.5, 8% PEG8000, 0.2 M MgCl2, 4°C; homodimer by crystallographic symmetry
[2] = target: the molecule itself; assay: AUC; sedimentation velocity, 20°C, 42 000 rpm, 0.3125, 0.0625, 0.125, 0.250, 0.5 or 1 mg/ml protein
[3] = target: the molecule itself; assay: AUC; dimerization dissociation constants of the interface mutants (Supplementary Figure S5B); whether from equilibrium or velocity runs is not stated; 20°C; dimer to monomers
[4] = target: the molecule itself; assay: AUC; sedimentation equilibrium, 20°C, 0.25, 0.5 and 1 mg/ml, 10 000, 12 000, 15 000 rpm; fitted to a monomer-dimer model; dimer to monomers

B1: Saccharomyces cerevisiae Qri7 (amino acids 30-407), crystallised form (enzyme, UniProt P43122 30-407, looked up)
chain: RKGYKVLAIETSCDDTCVSVLDRFSKSAAPNVLANLKDTLDSIDEGGIIPTKAHIHHQARIGPLTERALIESNAREGIDLICVTRGPGMPGSLSGGLDFAKGLAVAWNKPLIGVHHMLGHLLIPRMGTNGKVPQFPFVSLLVSGGHTTFVLSRAIDDHEILCDTIDIAVGDSLDKCGRELGFKGTMIAREMEKFINQDINDQDFALKLEMPSPLKNSASKRNMLSFSFSAFITALRTNLTKLGKTEIQELPEREIRSIAYQVQESVFDHIINKLKHVLKSQPEKFKNVREFVCSGGVSSNQRLRTKLETELGTLNSTSFFNFYYPPMDLCSDNSIMIGWAGIEIWESLRLVSDLDICPIRQWPLNDLLSVDGWRTDQL
modifications: seleno-methionine (a seleno-methionine crystal data set was collected)
notes: One protomer in the asymmetric unit; the homodimer is made by crystallographic symmetry; also called scQri7; not shown: His6, N-terminal, cleaved
[1]
  binding result: binds

B2: Qri7 (30-407) I77E (enzyme, yeast (Saccharomyces cerevisiae), UniProt P43122 30-407, looked up)
chain: RKGYKVLAIETSCDDTCVSVLDRFSKSAAPNVLANLKDTLDSIDEGGEIPTKAHIHHQARIGPLTERALIESNAREGIDLICVTRGPGMPGSLSGGLDFAKGLAVAWNKPLIGVHHMLGHLLIPRMGTNGKVPQFPFVSLLVSGGHTTFVLSRAIDDHEILCDTIDIAVGDSLDKCGRELGFKGTMIAREMEKFINQDINDQDFALKLEMPSPLKNSASKRNMLSFSFSAFITALRTNLTKLGKTEIQELPEREIRSIAYQVQESVFDHIINKLKHVLKSQPEKFKNVREFVCSGGVSSNQRLRTKLETELGTLNSTSFFNFYYPPMDLCSDNSIMIGWAGIEIWESLRLVSDLDICPIRQWPLNDLLSVDGWRTDQL
notes: Qri7, S. cerevisiae, amino acids 30-407, catalytic cleft mutant; source: E. coli BL21 (DE3) CodonPlus, purified (Ni-NTA or glutathione sepharose, SEC)
[2]
  stoichiometry N: 2

B3: Qri7 (30-407) R104A (enzyme, yeast (Saccharomyces cerevisiae), UniProt P43122 30-407, looked up)
chain: RKGYKVLAIETSCDDTCVSVLDRFSKSAAPNVLANLKDTLDSIDEGGIIPTKAHIHHQARIGPLTERALIESNAAEGIDLICVTRGPGMPGSLSGGLDFAKGLAVAWNKPLIGVHHMLGHLLIPRMGTNGKVPQFPFVSLLVSGGHTTFVLSRAIDDHEILCDTIDIAVGDSLDKCGRELGFKGTMIAREMEKFINQDINDQDFALKLEMPSPLKNSASKRNMLSFSFSAFITALRTNLTKLGKTEIQELPEREIRSIAYQVQESVFDHIINKLKHVLKSQPEKFKNVREFVCSGGVSSNQRLRTKLETELGTLNSTSFFNFYYPPMDLCSDNSIMIGWAGIEIWESLRLVSDLDICPIRQWPLNDLLSVDGWRTDQL
notes: Qri7, S. cerevisiae, amino acids 30-407, dimer interface mutant; also called R104A mutant; source: E. coli BL21 (DE3) CodonPlus, purified (Ni-NTA or glutathione sepharose, SEC)
[3]
  Kd: 3000 ± 300 nM

B4: Qri7 (30-407) R207A (enzyme, yeast (Saccharomyces cerevisiae), UniProt P43122 30-407, looked up)
chain: RKGYKVLAIETSCDDTCVSVLDRFSKSAAPNVLANLKDTLDSIDEGGIIPTKAHIHHQARIGPLTERALIESNAREGIDLICVTRGPGMPGSLSGGLDFAKGLAVAWNKPLIGVHHMLGHLLIPRMGTNGKVPQFPFVSLLVSGGHTTFVLSRAIDDHEILCDTIDIAVGDSLDKCGAELGFKGTMIAREMEKFINQDINDQDFALKLEMPSPLKNSASKRNMLSFSFSAFITALRTNLTKLGKTEIQELPEREIRSIAYQVQESVFDHIINKLKHVLKSQPEKFKNVREFVCSGGVSSNQRLRTKLETELGTLNSTSFFNFYYPPMDLCSDNSIMIGWAGIEIWESLRLVSDLDICPIRQWPLNDLLSVDGWRTDQL
notes: as for B2
[2]
  stoichiometry N: 2

B5: Qri7 (residues 30-407), wild type, as used for analytical ultracentrifugation (enzyme, yeast (Saccharomyces cerevisiae), UniProt P43122 30-407, looked up)
chain: RKGYKVLAIETSCDDTCVSVLDRFSKSAAPNVLANLKDTLDSIDEGGIIPTKAHIHHQARIGPLTERALIESNAREGIDLICVTRGPGMPGSLSGGLDFAKGLAVAWNKPLIGVHHMLGHLLIPRMGTNGKVPQFPFVSLLVSGGHTTFVLSRAIDDHEILCDTIDIAVGDSLDKCGRELGFKGTMIAREMEKFINQDINDQDFALKLEMPSPLKNSASKRNMLSFSFSAFITALRTNLTKLGKTEIQELPEREIRSIAYQVQESVFDHIINKLKHVLKSQPEKFKNVREFVCSGGVSSNQRLRTKLETELGTLNSTSFFNFYYPPMDLCSDNSIMIGWAGIEIWESLRLVSDLDICPIRQWPLNDLLSVDGWRTDQL
notes: Qri7, S. cerevisiae, amino acids 30-407; also called wild-type Qri7; source: E. coli BL21 (DE3) CodonPlus, purified (Ni-NTA or glutathione sepharose, SEC)
[2]
  stoichiometry N: 2
[4]
  Kd: 60 nM

B6: Qri7 (30-407) D44A (enzyme, yeast (Saccharomyces cerevisiae), UniProt P43122 30-407, looked up)
chain: RKGYKVLAIETSCDATCVSVLDRFSKSAAPNVLANLKDTLDSIDEGGIIPTKAHIHHQARIGPLTERALIESNAREGIDLICVTRGPGMPGSLSGGLDFAKGLAVAWNKPLIGVHHMLGHLLIPRMGTNGKVPQFPFVSLLVSGGHTTFVLSRAIDDHEILCDTIDIAVGDSLDKCGRELGFKGTMIAREMEKFINQDINDQDFALKLEMPSPLKNSASKRNMLSFSFSAFITALRTNLTKLGKTEIQELPEREIRSIAYQVQESVFDHIINKLKHVLKSQPEKFKNVREFVCSGGVSSNQRLRTKLETELGTLNSTSFFNFYYPPMDLCSDNSIMIGWAGIEIWESLRLVSDLDICPIRQWPLNDLLSVDGWRTDQL
notes: as for B2
[2]
  stoichiometry N: 2

B7: Qri7 (30-407) K130A (enzyme, yeast (Saccharomyces cerevisiae), UniProt P43122 30-407, looked up)
chain: RKGYKVLAIETSCDDTCVSVLDRFSKSAAPNVLANLKDTLDSIDEGGIIPTKAHIHHQARIGPLTERALIESNAREGIDLICVTRGPGMPGSLSGGLDFAAGLAVAWNKPLIGVHHMLGHLLIPRMGTNGKVPQFPFVSLLVSGGHTTFVLSRAIDDHEILCDTIDIAVGDSLDKCGRELGFKGTMIAREMEKFINQDINDQDFALKLEMPSPLKNSASKRNMLSFSFSAFITALRTNLTKLGKTEIQELPEREIRSIAYQVQESVFDHIINKLKHVLKSQPEKFKNVREFVCSGGVSSNQRLRTKLETELGTLNSTSFFNFYYPPMDLCSDNSIMIGWAGIEIWESLRLVSDLDICPIRQWPLNDLLSVDGWRTDQL
notes: Qri7, S. cerevisiae, amino acids 30-407, dimer interface mutant; also called K130A mutant; source: E. coli BL21 (DE3) CodonPlus, purified (Ni-NTA or glutathione sepharose, SEC)
[3]
  Kd: 2500 ± 200 nM

B8: Qri7 (30-407) S258A (enzyme, yeast (Saccharomyces cerevisiae), UniProt P43122 30-407, looked up)
chain: RKGYKVLAIETSCDDTCVSVLDRFSKSAAPNVLANLKDTLDSIDEGGIIPTKAHIHHQARIGPLTERALIESNAREGIDLICVTRGPGMPGSLSGGLDFAKGLAVAWNKPLIGVHHMLGHLLIPRMGTNGKVPQFPFVSLLVSGGHTTFVLSRAIDDHEILCDTIDIAVGDSLDKCGRELGFKGTMIAREMEKFINQDINDQDFALKLEMPSPLKNSASKRNMLSFSFAAFITALRTNLTKLGKTEIQELPEREIRSIAYQVQESVFDHIINKLKHVLKSQPEKFKNVREFVCSGGVSSNQRLRTKLETELGTLNSTSFFNFYYPPMDLCSDNSIMIGWAGIEIWESLRLVSDLDICPIRQWPLNDLLSVDGWRTDQL
notes: as for B2
[2]
  stoichiometry N: 2

B9: Qri7 (30-407) D43A (enzyme, yeast (Saccharomyces cerevisiae), UniProt P43122 30-407, looked up)
chain: RKGYKVLAIETSCADTCVSVLDRFSKSAAPNVLANLKDTLDSIDEGGIIPTKAHIHHQARIGPLTERALIESNAREGIDLICVTRGPGMPGSLSGGLDFAKGLAVAWNKPLIGVHHMLGHLLIPRMGTNGKVPQFPFVSLLVSGGHTTFVLSRAIDDHEILCDTIDIAVGDSLDKCGRELGFKGTMIAREMEKFINQDINDQDFALKLEMPSPLKNSASKRNMLSFSFSAFITALRTNLTKLGKTEIQELPEREIRSIAYQVQESVFDHIINKLKHVLKSQPEKFKNVREFVCSGGVSSNQRLRTKLETELGTLNSTSFFNFYYPPMDLCSDNSIMIGWAGIEIWESLRLVSDLDICPIRQWPLNDLLSVDGWRTDQL
notes: as for B2
[2]
  stoichiometry N: 2
